# Experimental data: patent US20230330253A1 (LANOVA MEDICINES, published 2023)
# Biological target: human claudin 18.2 (CLDN18.2) (human)
# Test: cell-based or functional assay
"Fluorescence, pHAb internalization on MKN45-CLDN18.2 cells, 20 nM antibody, normalized by DAR","Fluorescence, pHAb internalization on MKN45-CLDN18.2 cells, 100 nM antibody, normalized by DAR",Binder
11000,28900,"113G12E5E6 chimeric antibody (antibody, V domains shown) VH: QVQLKQSGPGLVQPSQSLSITCTVSDFSLTKYGVHWFRQSPGKGLEWLGVIWTGGNTDYNPALIPRLSFRKDNSKSQVFFKMNSLQSSDTAVYYCARNGYYGNAMDYWGQGTSVTVSS VL: DIVMTQSPSSLTVTAGERVTMSCKPSQSLLNSGNQKNYLAWYQQKPGQPPKLLLYWASTRESGVPDRFKGSGSGTDFTLTISSVQAEDLAVYYCQNAYFYPCTFGGGTKLEMK"
16200,29100,"78C10B6G4 chimeric antibody (antibody, V domains shown) VH: QVQLKESGPGLVAPSQSLSITCTVSGFSLINYGVSWVRQPPGKGLEWLGVIRGDGNTNYQSALRSRLSIRKDTSKSQVFLKLNSVHTDGTATYYCAKVGRGNAMDHWGQGISVIVSS VL: DIVMTQSPSSLTVTAGEKVTMSCKSSQSLLNSGNQKNYLTWYQQRPGQPPKLLIYRASSRESGVPVRFTGSGSGTDFTLTISSVQAEDLAVYYCQNDYIYPYTFGGGTKLEMN"
21400,34000,"119G11D9 chimeric antibody (antibody, V domains shown) VH: EVQLQQSGPELVKPGASVKMSCKASGYTFTGFLMHWVKQKPGQGLEWIGYINPYNDGTKYSEKFKGKATLTSDKSSSTAFMELSSLTSDDSAVYYCARLDYGNAMDYWGQGTSVTVSS VL: DIVMTQSPSSLTVTAGERVTMRCRSTQSLFNSGNQKNYLTWYQQKPGQPPKLLIYWASTRESGVPDRFTGGGSGTDFTLTISSVQAEDLAVYYCQNAYYYPLTFGAGTKLERK"
18400,26100,"44F6B11 chimeric antibody (antibody, V domains shown) VH: EVQLVESGGDLVKPGGSLKLSCAASGFTFSNYGMSWVRQTPDKRLEWVATFSYGDSHNYYSDSVKGRFTISRDIAKDALYLQMSSLRSEDTAIYYCARFGRGNTMDYWGQGTSVTVSL VL: DIVMTQSPSSLTVTAGEKVIMSCKSNQSLLNSGNQKKYLTWYQQKPGQSPKLLIYWASTRESGVPDRFTGSESGTDFTLTISSVRAEDLAVYYCQNGYSYPFTFGSGTKLEMK"
19900,28700,"56E8F10F4 chimeric antibody (antibody, V domains shown) VH: DVQLVESGGGLVQPGGSRKLSCTASGFTFNSFGMNWVRQAPEKGLEWVAFISGGSNTIHYLDTVKGRFTISRDNPKNTLFLQMTSLRSEDTAMYYCTRLALGNAMDYWGQGTSVIVSS VL: DIVMTQSPSSLTVTAGEKVTMSCKSSQSLLNSGNQKNYLTWYQQKPGQPPKLLIYWASTRESGVPDRFTGSGSGTYFTLTISSVQAADLAVYYCQNDYYFPFTFGSGTKLEIK"
18600,33100,"58G2C2 chimeric antibody (antibody, V domains shown) VH: QVHLQQSGAEVVRPGTSVKVSCKASGYAFTNYLIEWIKKRPGQGLEWVGVINPGRSGTNYNEKFKGKATLTADKSSSTAYMQLSSLTSDDSAVYFCARTRYGGNAMDYWGQGTSVTVSS VL: DIVMTQSPSSLTVTAGEKVTMSCKSSQSLLNSGNQKNYLTWYQQKPGQPPTLLIFWAFTRESGVPDRFTGSGSGTDFTLTINSVQAEDLAVYYCQNSYSYPFTFGSGTKLEIK"
19400,33200,"15C2B7 chimeric antibody (antibody, V domains shown) VH: QIQLVQSGPELRKPGETVKISCKASGYTFTNYGMNWVKQAPGKGLKWMAWINANTGEPTYAEEFKGRFAFSLETSARSAYLQINSLKNEDTATYFCARLTRGNSFDYWGQGTTLTVSS VL: DIVMTQSPSSLTVTAGGKVTVSCKSSQSLLNSGNQKNYLTWYQQKPGQPPKLLIYWASTRESGVPDRFTGSGSGTDFTLTISSVQTEDLAVYYCQNNYYFPLTFGAGTKLELK"
9600,35500,"10G7G11 chimeric antibody (antibody, V domains shown) VH: QVQLKESGPGLVAPSQSLSITCTISGFSLNTYGVHWVRQPPGKGLEWLVVMLSDGNTVYNSSLKSRLSLTKDNSKSQLLLKMNSLQTDDTAIYYCARHKAYGNAMDYWGQGTSVTVSS VL: DIVMTQSPSSLTVTAGEKVTMTCKSSQSLFNSGNQRNYLTWYQRKPGQPPKLLIYWASTRESGVPDRFTGSGSGTYFTLTVSSVQAEDLAVYYCQNAYYFPFTFGSGTKLEKK"
15200,44400,"101C4F12 chimeric antibody (antibody, V domains shown) VH: QVQLKESGPGQVAPSQSLSIACTVSGFSLSSYGVHWVRQPPGKGLEWLGVIWAGGSTNYDSALMSRLTISKDNSRTRVFLKMNSLQTDDTAIYYCARSLYGNSLDSWGPGTTLTVSS VL: DIVMTQSPSSLTVTAGEKVTMSCKSSQSLLNSGNQRNYLTWYQQKPGQPPRLLIYWSSTRDSGVPDRFTGSGSRTDFTLTISSVQAEDLAVYYCQNNFIYPLTFGAGTKLELK"
21100,45100,"20F1E10 chimeric antibody (antibody, V domains shown) VH: QIQLVQSGPELKKPGETVKISCKASGYTFTKYGMNWVRQAPGKGLKWMGWISTNTGEPTYAEEFKGRFAFSLETSASTAFLQINNLKNEDTATYFCARLVRGNSFDFWGQGITLTVSS VL: DIVMTQSPSSLTVTAGEKVTMSCKSSQSLFNSGNQRNYLTWYQQKPGQPPKLLIYWASTRESGVPDRFTGSGSGTDFILTITKVQAEDLAVYYCQNVYSYPLTFGAGTKLELK"
21400,41700,"116A8B7 chimeric antibody (antibody, V domains shown) VH: EVQLQQSGPELVKPGASVKMSCKSSGYTFTGFLMHWVKQKPGQGLEWIGYINPYNDGTKYSEKFKGKATLTSDKSSSTAYMELSSLTSDDSAVYYCGRLDYGNAMDYWGQGTSVTVSS VL: DIVMTQSPSSLTVTAGEKVTMRCRSTQSLFNSGNQRNYLTWYQQKPGQPPKLLIYWASTRESGVPDRFTGSGSGTDFTLTISSVQAEDLAVYYCQNAYYYPLTFGVGTKLERK"
15100,20500,"65G8B8 chimeric antibody (antibody, V domains shown) VH: QVQLKESGPGLVAPSQSLSITCTVSGFSLTSYGVSWVRQPPGKGLEWLGVIWGDGNTIYHSALKSRLSISRDNSKRQVFLKVNSLQIDDTATYYCAKQGLYGHAMDYWGQGTSVIVSS VL: DIMMTQSPSSLTVTTGEKVTLTCKSSQSLLNSGNLKNYLTWYQQKPGHPPKLLIYWASTRESGVPVRFTGSGSGTDFTLTISSVQAEDLTVYYCQNVYIYPFTFGSGTKLEMR"
12000,31300,"103A10B2 chimeric antibody (antibody, V domains shown) VH: QVQLKESGPGLVAPSQSLSITCTVSGLSLTSFGVHWIRQPPGKGLEWLGVIWAGGSTNYNSALMSRLSISKDNSKSQVYLKMHSLQTDDTAMYYCARSLYGNSFDYWGQGTALTVSS VL: DIVMTQSPSSLTVTPGEKVTMSCRSSMSLFNSGNQKSYLSWYHQKPGQPPKLLIYWASTRDSGVPVRFTGSGSGTDFTLTISSVQAEDLAVYYCHNDYIYPLTFGAGTKLELK"
